Data taken from paper PMC6996395 (FASEB bioAdvances, 2019).

Molecular target: Split-CFTR front half (N-term-TMD1-NBD1; aa 1-634) (UniProt P13569 1-634)
Experiment: proximity ligation

Chain of Split-CFTR front half (N-term-TMD1-NBD1; aa 1-634) (P13569 1-634): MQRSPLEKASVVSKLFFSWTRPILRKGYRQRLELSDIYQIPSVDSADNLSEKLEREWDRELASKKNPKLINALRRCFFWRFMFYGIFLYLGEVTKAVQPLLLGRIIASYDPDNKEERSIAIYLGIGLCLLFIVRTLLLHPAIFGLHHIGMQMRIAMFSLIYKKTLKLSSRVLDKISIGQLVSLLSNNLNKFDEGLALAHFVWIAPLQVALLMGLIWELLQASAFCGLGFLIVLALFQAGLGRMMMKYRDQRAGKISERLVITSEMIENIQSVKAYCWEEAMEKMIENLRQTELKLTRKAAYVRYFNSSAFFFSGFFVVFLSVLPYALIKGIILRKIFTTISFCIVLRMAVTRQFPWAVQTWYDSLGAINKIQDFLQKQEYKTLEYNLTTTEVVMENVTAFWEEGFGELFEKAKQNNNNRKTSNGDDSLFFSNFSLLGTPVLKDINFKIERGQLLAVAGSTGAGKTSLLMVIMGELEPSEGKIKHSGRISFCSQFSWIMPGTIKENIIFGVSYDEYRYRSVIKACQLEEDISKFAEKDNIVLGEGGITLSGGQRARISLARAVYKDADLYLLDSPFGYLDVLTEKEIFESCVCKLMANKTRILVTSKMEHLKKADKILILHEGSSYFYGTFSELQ

B1: CFTR R-region R-6CA (S641A/T682A/S707A/S790A/T791A/S809A; aa 635-836) (domain or fragment, UniProt P13569 635-836, looked up)
chain: NLQPDFASKLMGCDSFDQFSAERRNSILTETLHRFSLEGDAPVSWTEAKKQSFKQTGEFGEKRKNSILNPINAIRKFSIVQKTPLQMNGIEEDSDEPLERRLSLVPDSEQGEAILPRISVISTGPTLQARRRQSVLNLMTHSVNQGQNIHRKTTAAARKVSLAPQANLTELDIYARRLSQETGLEISEEINEEDLKECFFDD
  CTCF of PLA signal (after PKA stimulation): 1.4
  CTCF of PLA signal (after PKC + PKA stimulation): 5.28
  CTCF of PLA signal (after PKC stimulation): 5.54
  CTCF of PLA signal (basal): 0.33
